For five molecules, EC50 results are on record in patent publication US20220098307A1 (WUHAN YZY BIOPHARMA, published 2022).

The target of one assay is T1, Monkey CD3 (monkey).
T1 construct: whole, on cells; also called CD3 of monkey CD3 positive T cells
Kind of assay: flow cytometry, monkey T cells.

A further assay concerns the target T2, Human CD3ε (human, UniProt P07766 23-126).
T2 construct: CD3 on T cells isolated from human whole blood
Description: flow cytometry, human T cells. The source says:
1) Cell preparation: T cells isolated from CD3-positive human whole blood were used for a CD3 end affinity detection of multifunctional antibody molecule; positive tumor cells of corresponding antigen were used for detecting affinity of tumor antigen; for example, CD38-positive MM. 1S cells (purchased from the Cell Resource Center of Shanghai Institutes for Biological Sciences, Chinese Academy of Sciences) or RPMI 8226 cells (purchased from the Cell Resource Center of Shanghai Institutes for Biological Sciences, Chinese Academy of Sciences) were used for CD38 antigen detection, and PD-L1 positive H358 cells (purchased from the Cell Resource Center of Shanghai Institutes for Biological Sciences, Chinese Academy of Sciences) were used for PD-L1 antigen detection, and so on. The cells were resuspended with 1% FBS-PBS, adjusted to a density of 4×10⁶/ml, and 50 μl of cells were taken from each well, and then plated at 2×10⁵ per well. Cell plating was operated on ice
2) Addition of the antibody: according to the experimental design, the antibody was diluted gradually, and dilution of antibody was operated on ice. For example, the initial concentration of antibody for dilution was 3000 nM, and the antibody was diluted by 3 times with 11 concentration gradients. The diluted antibody was added to a cell well at 50 μl per well, mixed well, and shaked and incubated at 4° C. 1100 rpm/min for 2 h; after washing, the cells were resuspend in 1% FBS-PBS, and a diluted secondary antibody PE anti-human IgG FC (Biolegend, 409304) was added with a final concentration of 8 ug/ml and a volume of 50 μl/well. At the same time, a well only added with cells and secondary antibody was set as a control, the components were mixed well, and incubated under shaking at 1100 rpm/min at 4° C. for 1 h;
5) Data analysis: the data was analyzed by a flow analysis software FlowJo 7.6 thereby obtaining an average fluorescence intensity of the specific antibody concentration, plotted by a Graphpad Prism 5 with the antibody concentration (nM) as an abscissa and the average fluorescence intensity as an ordinate; the EC50 value was calculated by the method of One site—Specific binding, and the EC50 value indicated the cell affinity of the antibody to the corresponding target antigen.

B1: M1IC-AAG-1 (bispecific antibody, human IgG1, kappa, L234A L235A)
chain: QVQLVESGGGVVQPGRSLRLSCAASGFTFSTYAMNWVRQAPGKGLEWVARIRSKYNNYATYYADSVKDRFTISRDDSKNTLYLQMNSLRAEDTAVYYCARHGNFGNSYVSWFAYWGQGTLVTVSSGGGGSGGGGSGGGGSQTVVTQEPSLTVSPGGTVTLTCRSSTGAVTTSNYANWVQQKPGQAPRGLIGGTNKRAPGVPARFSGSLLGGKAALTLSGVQPEDEAEYYCALWYSNLWVFGGGTKVEIKGGGGSDKTHTCPPCPAPEAAGGPSVFLFPPKPKDTLMISRTPEVTCVVVDVSHEDPEVKFNWYVDGVEVHNAKTKPREEQYNSTYRVVSVLTVLHQDWLNGKEYKCKVSNKALGAPIEKTISKAKGQPREPQVCTLPPSRDELTKNQVSLSCAVKGFYPSDIAVEWESNGQPENNYKTTPPVLDSDGSFFLVSKLTVDKSRWQQGNVFSCSVMHEALHNHYTQKSLSLSPGK
heavy: not shown
light: DVVMTQTPLSLPVSLGDQASISCRSSQSLVHSNGNTYLRWYLQKPGQSPKVLIYKVSNRFSGVPDRFSGSGSGTDFTLKISRVEAEDLGVYFCSQSTHVPWTFGGGTKLEIKRTVAAPSVFIFPPSDEQLKSGTASVVCLLNNFYPREAKVQWKVDNALQSGNSQESVTEQDSKDSTYSLSSTLTLSKADYEKHKVYACEVTHQGLSSPVTKSFNRGEC
notes: structure 1 isotype control; CH2 AAG
Consider B1, for which the EC50 with Monkey CD3 was determined as 205 nM; with Human CD3ε it was 152 nM.

B2: M1IC-G2-1 (bispecific antibody, human IgG1, kappa)
chain: QVQLVESGGGVVQPGRSLRLSCAASGFTFSTYAMNWVRQAPGKGLEWVARIRSKYNNYATYYADSVKDRFTISRDDSKNTLYLQMNSLRAEDTAVYYCARHGNFGNSYVSWFAYWGQGTLVTVSSGGGGSGGGGSGGGGSQTVVTQEPSLTVSPGGTVTLTCRSSTGAVTTSNYANWVQQKPGQAPRGLIGGTNKRAPGVPARFSGSLLGGKAALTLSGVQPEDEAEYYCALWYSNLWVFGGGTKVEIKGGGGSDKTHTCPPCPAPPVAGPSVFLFPPKPKDTLMISRTPEVTCVVVDVSHEDPEVQFNWYVDGVEVHNAKTKPREEQFNSTFRVVSVLTVVHQDWLNGKEYKCKVSNKGLPAPIEKTISKTKGQPREPQVCTLPPSRDELTKNQVSLSCAVKGFYPSDIAVEWESNGQPENNYKTTPPVLDSDGSFFLVSKLTVDKSRWQQGNVFSCSVMHEALHNHYTQKSLSLSPGK
heavy: EVKLDETGGGLVQPGRPMKLSCVASGFTFSDYWMNWVRQSPEKGLEWVAQIRNKPYNYETYYSDSVKGRFTISRDDSKSSVYLQMNNLRVEDMGIYYCTGSYYGMDYWGQGTSVTVSSASTKGPSVFPLAPSSKSTSGGTAALGCLVKDYFPEPVTVSWNSGALTSGVHTFPAVLQSSGLYSLSSVVTVPSSSLGTQTYICNVNHKPSNTKVDKKVEPKSCDKTHTCPPCPAPPVAGPSVFLFPPKPKDTLMISRTPEVTCVVVDVSHEDPEVQFNWYVDGVEVHNAKTKPREEQFNSTFRVVSVLTVVHQDWLNGKEYKCKVSNKGLPAPIEKTISKTKGQPREPQVYTLPPCRDELTKNQVSLWCLVKGFYPSDIAVEWESNGQPENNYKTTPPVLDSDGSFFLYSKLTVDKSRWQQGNVFSCSVMHEALHNHYTQKSLSLSPGK
light: DVVMTQTPLSLPVSLGDQASISCRSSQSLVHSNGNTYLRWYLQKPGQSPKVLIYKVSNRFSGVPDRFSGSGSGTDFTLKISRVEAEDLGVYFCSQSTHVPWTFGGGTKLEIKRTVAAPSVFIFPPSDEQLKSGTASVVCLLNNFYPREAKVQWKVDNALQSGNSQESVTEQDSKDSTYSLSSTLTLSKADYEKHKVYACEVTHQGLSSPVTKSFNRGEC
notes: structure 1 isotype control; CH2 G2CH2
Consider B2, for which the EC50 in the assay with Monkey CD3 was 165 nM; with Human CD3ε, 127 nM.

B3: M1IC-AG2-1 (bispecific antibody, human IgG1, kappa)
chain: QVQLVESGGGVVQPGRSLRLSCAASGFTFSTYAMNWVRQAPGKGLEWVARIRSKYNNYATYYADSVKDRFTISRDDSKNTLYLQMNSLRAEDTAVYYCARHGNFGNSYVSWFAYWGQGTLVTVSSGGGGSGGGGSGGGGSQTVVTQEPSLTVSPGGTVTLTCRSSTGAVTTSNYANWVQQKPGQAPRGLIGGTNKRAPGVPARFSGSLLGGKAALTLSGVQPEDEAEYYCALWYSNLWVFGGGTKVEIKGGGGSDKTHTCPPAPAPPVAGPSVFLFPPKPKDTLMISRTPEVTCVVVDVSHEDPEVQFNWYVDGVEVHNAKTKPREEQFNSTFRVVSVLTVVHQDWLNGKEYKCKVSNKGLPAPIEKTISKTKGQPREPQVCTLPPSRDELTKNQVSLSCAVKGFYPSDIAVEWESNGQPENNYKTTPPVLDSDGSFFLVSKLTVDKSRWQQGNVFSCSVMHEALHNHYTQKSLSLSPGK
heavy: EVKLDETGGGLVQPGRPMKLSCVASGFTFSDYWMNWVRQSPEKGLEWVAQIRNKPYNYETYYSDSVKGRFTISRDDSKSSVYLQMNNLRVEDMGIYYCTGSYYGMDYWGQGTSVTVSSASTKGPSVFPLAPSSKSTSGGTAALGCLVKDYFPEPVTVSWNSGALTSGVHTFPAVLQSSGLYSLSSVVTVPSSSLGTQTYICNVNHKPSNTKVDKKVEPKSCDKTHTCPPAPAPPVAGPSVFLFPPKPKDTLMISRTPEVTCVVVDVSHEDPEVQFNWYVDGVEVHNAKTKPREEQFNSTFRVVSVLTVVHQDWLNGKEYKCKVSNKGLPAPIEKTISKTKGQPREPQVYTLPPCRDELTKNQVSLWCLVKGFYPSDIAVEWESNGQPENNYKTTPPVLDSDGSFFLYSKLTVDKSRWQQGNVFSCSVMHEALHNHYTQKSLSLSPGK
light: DVVMTQTPLSLPVSLGDQASISCRSSQSLVHSNGNTYLRWYLQKPGQSPKVLIYKVSNRFSGVPDRFSGSGSGTDFTLKISRVEAEDLGVYFCSQSTHVPWTFGGGTKLEIKRTVAAPSVFIFPPSDEQLKSGTASVVCLLNNFYPREAKVQWKVDNALQSGNSQESVTEQDSKDSTYSLSSTLTLSKADYEKHKVYACEVTHQGLSSPVTKSFNRGEC
notes: structure 1 isotype control; CH2 AG2CH2
For B3, the EC50 with Monkey CD3 was 197 nM; in the assay with Human CD3ε it was 163 nM.

B4: M1IC-FES-1 (bispecific antibody, human IgG1, kappa)
chain: QVQLVESGGGVVQPGRSLRLSCAASGFTFSTYAMNWVRQAPGKGLEWVARIRSKYNNYATYYADSVKDRFTISRDDSKNTLYLQMNSLRAEDTAVYYCARHGNFGNSYVSWFAYWGQGTLVTVSSGGGGSGGGGSGGGGSQTVVTQEPSLTVSPGGTVTLTCRSSTGAVTTSNYANWVQQKPGQAPRGLIGGTNKRAPGVPARFSGSLLGGKAALTLSGVQPEDEAEYYCALWYSNLWVFGGGTKVEIKGGGGSDKTHTCPPCPAPEFEGGPSVFLFPPKPKDTLMISRTPEVTCVVVDVSHEDPEVKFNWYVDGVEVHNAKTKPREEQYNSTYRVVSVLTVLHQDWLNGKEYKCKVSNKALPASIEKTISKAKGQPREPQVCTLPPSRDELTKNQVSLSCAVKGFYPSDIAVEWESNGQPENNYKTTPPVLDSDGSFFLVSKLTVDKSRWQQGNVFSCSVMHEALHNHYTQKSLSLSPGK
heavy: EVKLDETGGGLVQPGRPMKLSCVASGFTFSDYWMNWVRQSPEKGLEWVAQIRNKPYNYETYYSDSVKGRFTISRDDSKSSVYLQMNNLRVEDMGIYYCTGSYYGMDYWGQGTSVTVSSASTKGPSVFPLAPSSKSTSGGTAALGCLVKDYFPEPVTVSWNSGALTSGVHTFPAVLQSSGLYSLSSVVTVPSSSLGTQTYICNVNHKPSNTKVDKKVEPKSCDKTHTCPPCPAPEFEGGPSVFLFPPKPKDTLMISRTPEVTCVVVDVSHEDPEVKFNWYVDGVEVHNAKTKPREEQYNSTYRVVSVLTVLHQDWLNGKEYKCKVSNKALPASIEKTISKAKGQPREPQVYTLPPCRDELTKNQVSLWCLVKGFYPSDIAVEWESNGQPENNYKTTPPVLDSDGSFFLYSKLTVDKSRWQQGNVFSCSVMHEALHNHYTQKSLSLSPGK
light: DVVMTQTPLSLPVSLGDQASISCRSSQSLVHSNGNTYLRWYLQKPGQSPKVLIYKVSNRFSGVPDRFSGSGSGTDFTLKISRVEAEDLGVYFCSQSTHVPWTFGGGTKLEIKRTVAAPSVFIFPPSDEQLKSGTASVVCLLNNFYPREAKVQWKVDNALQSGNSQESVTEQDSKDSTYSLSSTLTLSKADYEKHKVYACEVTHQGLSSPVTKSFNRGEC
notes: structure 1 isotype control; CH2 FES; also called MlIC-FES-1
For B4, the EC50 came to 295 nM with Monkey CD3 and 170 nM in the assay with Human CD3ε.

B5: M1IC-NQ (bispecific antibody, human IgG1, kappa, N297Q)
chain: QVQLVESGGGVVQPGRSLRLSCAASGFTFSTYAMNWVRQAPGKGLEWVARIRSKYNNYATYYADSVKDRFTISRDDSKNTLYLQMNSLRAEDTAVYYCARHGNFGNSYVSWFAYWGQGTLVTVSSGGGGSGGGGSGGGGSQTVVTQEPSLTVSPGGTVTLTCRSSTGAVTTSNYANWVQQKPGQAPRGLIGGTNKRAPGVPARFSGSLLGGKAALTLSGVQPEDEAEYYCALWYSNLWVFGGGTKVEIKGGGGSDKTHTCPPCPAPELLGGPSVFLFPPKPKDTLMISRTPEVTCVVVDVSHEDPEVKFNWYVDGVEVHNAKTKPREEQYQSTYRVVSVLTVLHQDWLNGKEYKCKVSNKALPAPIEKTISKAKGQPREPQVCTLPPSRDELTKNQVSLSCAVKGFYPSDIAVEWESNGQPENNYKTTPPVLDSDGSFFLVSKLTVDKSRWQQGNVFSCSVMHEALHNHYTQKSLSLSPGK
heavy: EVKLDETGGGLVQPGRPMKLSCVASGFTFSDYWMNWVRQSPEKGLEWVAQIRNKPYNYETYYSDSVKGRFTISRDDSKSSVYLQMNNLRVEDMGIYYCTGSYYGMDYWGQGTSVTVSSASTKGPSVFPLAPSSKSTSGGTAALGCLVKDYFPEPVTVSWNSGALTSGVHTFPAVLQSSGLYSLSSVVTVPSSSLGTQTYICNVNHKPSNTKVDKKVEPKSCDKTHTCPPCPAPELLGGPSVFLFPPKPKDTLMISRTPEVTCVVVDVSHEDPEVKFNWYVDGVEVHNAKTKPREEQYQSTYRVVSVLTVLHQDWLNGKEYKCKVSNKALPAPIEKTISKAKGQPREPQVYTLPPCRDELTKNQVSLWCLVKGFYPSDIAVEWESNGQPENNYKTTPPVLDSDGSFFLYSKLTVDKSRWQQGNVFSCSVMHEALHNHYTQKSLSLSPGK
light: DVVMTQTPLSLPVSLGDQASISCRSSQSLVHSNGNTYLRWYLQKPGQSPKVLIYKVSNRFSGVPDRFSGSGSGTDFTLKISRVEAEDLGVYFCSQSTHVPWTFGGGTKLEIKRTVAAPSVFIFPPSDEQLKSGTASVVCLLNNFYPREAKVQWKVDNALQSGNSQESVTEQDSKDSTYSLSSTLTLSKADYEKHKVYACEVTHQGLSSPVTKSFNRGEC
notes: structure 1 isotype control; CH2 N297Q
Take B5: the 50% effective concentration (EC50) with Monkey CD3 came to 378 nM; in the assay with Human CD3ε, 194 nM.
